Data taken from the supplement of paper PMC10567573.

B1: OAS1 (parent)
chain: YIGTHEYPHFSHRPSTLQAASTPQ
B2: FBXO34 (parent)
chain: ASSVESTLPVLEASSWKKQVSHDF

Variants of: B1
Assay: protein stability index of a GFP-peptide fusion (GPS, HEK-293T) (PSI 1-6); higher = more stable
Settings: c terminus: a fixed tail appended
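Also: lentivirally expressed fusions sorted by FACS into six bins by GFP to DsRed ratio, PSI derived from sequencing read proportions per bin multiplied by bin number.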

Protein stability index, by site and new letter:
H12: G 1.71 | M 1.68 | K 2.07 | D 2.49 | S 1.83 | I 1.72 | E 2.25 | R 2.55 | A 1.97 | L 2.39 | Y 1.92 | V 1.93 | N 2.12 | C 2.64 | T 2.03 | Q 2.23 | W 1.46 | P 2.15 | F 2.21
P8: H 2.45 | V 2 | F 2.44 | A 1.74 | M 1.91 | D 2.35 | W 1.74 | R 1.63 | S 1.95 | E 2.79 | T 1.54 | I 2.02 | N 2.05 | Y 1.92 | L 1.91 | K 2.08 | G 1.39 | C 2.12 | Q 1.95
S11: V 2.85 | A 1.96 | Y 3.04 | P 2.44 | N 2.31 | G 2.14 | L 2.54 | K 1.92 | C 2.65 | F 3.55 | T 1.76 | E 2.56 | W 2.76 | I 2.71 | Q 2.71 | R 2.09 | H 1.98 | M 1.93 | D 2.64
Y7: Q 2.65 | R 2.12 | N 2.15 | S 2.55 | V 2.12 | T 2.3
A20: L 2.39 | Y 1.89 | E 2.56 | D 1.75 | N 2.08 | I 2.19 | P 1.97 | T 2.04 | V 1.79 | H 1.64 | C 1.84 | G 1.88 | K 2.17 | M 1.93 | R 1.82 | W 2.43 | S 2.11 | F 1.73 | Q 1.93
F10: W 1.89 | S 2.9 | C 2.24 | N 2.43 | T 2.48 | L 2.53 | H 2.56 | D 3.14 | I 2.27 | P 2.06 | R 2.19 | K 2.73 | A 2.57 | G 2.88 | Y 1.79 | Q 2.41 | E 3.25 | V 2.12 | M 2.73
L17: R 2 | H 1.93 | G 2.17 | F 1.83 | K 1.79 | I 1.9 | E 2.06 | M 2.24 | Q 2.29 | N 2.42 | D 2.41 | T 1.98 | P 2.5 | C 2.14 | W 2.01 | S 2.12 | Y 2.14 | V 2.3 | A 1.84
S21: V 1.89 | T 2.07 | N 1.85 | M 1.94 | R 2 | A 2.1 | H 2 | L 1.53 | D 1.89 | I 1.97 | Q 2 | E 2.24 | W 2.42 | Y 1.95 | G 2.23 | C 2.77 | K 1.81 | F 1.68 | P 1.67
H9: V 1.78 | S 2.09 | I 2.18 | D 2.75 | Y 2.83 | N 2.4 | W 3.41 | L 1.67 | F 2.2 | T 2.09 | A 1.87 | E 3.17 | K 1.94 | Q 2.12 | G 1.95 | C 1.48 | M 2.33 | P 1.44 | R 2.08
A19: L 1.85 | E 2.58 | H 1.89 | W 1.28 | C 2.07 | G 1.98 | P 2.11 | R 2.29 | D 2.3 | M 2.15 | I 2.04 | Q 2.04 | Y 2.42 | V 1.81 | K 1.68 | N 1.9 | F 1.99 | T 1.72 | S 1.9
P14: L 1.7 | I 1.72 | F 1.49 | K 2.13 | A 1.81 | Y 2.09 | C 1.78 | V 2.48 | S 1.64 | W 2.81 | Q 2.22 | R 1.9 | E 2.17 | T 1.98 | G 2.21 | D 2.1 | H 2.1 | N 2.1 | M 1.74
R13: L 1.66 | V 2.67 | G 1.92 | Y 2.09 | A 2.58 | M 2.19 | S 2.18 | C 1.26 | H 2.29 | F 1.33 | E 2.19 | D 2.52 | Q 1.99 | K 2.12 | W 3.13 | N 1.8 | T 1.79 | I 1.92
T22: L 1.78 | E 1.8 | K 2.35 | W 1.53 | H 1.6 | S 1.38 | Y 1.71 | D 2.64 | C 1.62 | A 2.51 | V 1.93 | G 1.59 | I 2.13 | N 2.1 | P 2.17 | R 1.68 | Q 2.31 | F 1.93 | M 2.27
Q18: D 1.71 | E 2.22 | C 2.08 | K 2.04 | A 2.85 | I 1.94 | L 2.08 | W 2.75 | Y 2.37 | R 1.95 | M 1.74 | P 1.81 | S 1.65 | F 2.25 | T 1.9 | N 2.34 | V 1.99 | G 2.06 | H 2.38
T16: A 2.29 | S 2.34 | E 2.46 | W 2.23 | N 1.62 | H 2.02 | K 2.08 | I 1.6 | Y 1.98 | D 2.13 | R 2.4 | F 1.92 | Q 2.3 | C 1.68 | M 1.42 | G 1.62 | V 1.73 | L 2.22 | P 2.14
S15: T 1.94 | M 1.6 | C 1.61 | Q 1.99 | K 1.82 | V 2 | E 2.05 | Y 1.79 | I 1.85 | L 1.69 | D 2.1 | N 2.24 | H 1.82 | R 1.96 | F 2.67 | P 1.62 | W 3.2 | G 1.79 | A 2.13
P23: C 1.88 | A 2.14 | Y 1.75 | G 1.53 | H 2.4 | K 1.91 | E 2.37 | M 1.89 | F 1.72 | L 1.73 | D 2.15 | S 2.27 | R 1.86 | Q 2.23 | N 2.54 | W 1.97 | T 2.48 | I 2.74 | V 1.81
Q24: V 2.2 | S 1.94 | L 2.29 | N 2.07 | H 2.15 | T 2.04 | K 1.81 | Y 2.4 | E 2.25 | W 2.25 | F 1.77 | C 1.69 | R 1.86 | D 2.06 | M 1.87 | I 1.92 | A 1.66 | G 2.2

Variants of: B2
Assay: as above
Settings: c terminus: a fixed tail appended

Protein stability index of substitutions, site by site:
A1: K 2.1 | C 2.1 | G 2.99 | E 2.83 | D 3.32 | I 1.95 | F 2.11
